Laboratory results from patent publication US20040072188A1 (Biogen, published 2004).

Columns and labels:
[1] = biological target: T1, human BAFF-R (JST576), full length, on cells (human, UniProt Q96RJ3 1-184); experiment: FACS on 293EBNA cells co-transfected with pJST576 and GFP reporter; anti-murine APRIL mAb, biotinylated anti-rat IgG2b, SAV-PE
T1 construct: also called pJST576 transfected cells; huBAFF-R
T1 sequence: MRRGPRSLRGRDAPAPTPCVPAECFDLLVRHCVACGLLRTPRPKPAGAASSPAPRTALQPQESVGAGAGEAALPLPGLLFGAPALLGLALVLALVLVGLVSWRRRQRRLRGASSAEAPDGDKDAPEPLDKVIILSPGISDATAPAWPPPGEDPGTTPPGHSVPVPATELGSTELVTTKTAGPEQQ
Excerpt: (§1) At 18-20 hr post-transfection, cells were detached, counted, and stained for FACS analysis similar to Example 5 with the following modifications. […] The cells were again washed, fixed with paraformaldehyde, and analyzed by FACS for GFP and PE positive cells.

[2] = biological target: T2, human TACI, full length, on transfected 293EBNA cells (CA336) (human, UniProt O14836 1-293); experiment: FACS on 293EBNA cells co-transfected with human TACI and GFP, 1 ug/ml myc-APRIL
T2 construct: whole, on cells; also called huTACI
T2 sequence (looked up): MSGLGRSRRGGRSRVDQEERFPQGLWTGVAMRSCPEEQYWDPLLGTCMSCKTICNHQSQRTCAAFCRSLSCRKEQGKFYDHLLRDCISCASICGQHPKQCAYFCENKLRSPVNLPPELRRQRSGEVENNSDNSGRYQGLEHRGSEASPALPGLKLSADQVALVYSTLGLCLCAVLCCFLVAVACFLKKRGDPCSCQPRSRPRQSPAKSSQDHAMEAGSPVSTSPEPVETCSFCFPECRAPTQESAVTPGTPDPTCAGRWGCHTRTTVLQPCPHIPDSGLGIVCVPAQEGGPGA
Excerpt: as §1

- binding result [1]: no binding (tested: 1 ug/ml)
- binding result [2]: binds
B1: murine recombinant soluble myc-APRIL (ligand, UniProt Q9D777 96-241, looked up)
chain: AVLTQKHKKKHSVLHLVPVNITSKADSDVTEVMWQPVLRRGRGLEAQGDIVRVWDTGIYLLYSQVLFHDVTFTMGQVVSREGQGRRETLFRCIRSMPSDPDRAYNSCYSAGVFHLHQGDIITVKIPRANAKLSLSPHGTFLGFVKL
notes: also called myc-muAPRIL; murine myc-APRIL; not shown: myc tag
